Measurements from US6103888A, “Mammalian cationic proteins having lipopolysaccharide binding and anti-coagulant activity” (priority 1999, dated 2000).
Values joined by “and” are separate entries in the source; they are usually repeats but may differ in a detail not shown here. Equal entries are not always repeated.

B1: CAP18: cationic protein from rabbit granulocytes, 16.6 kD, SEQ ID NO:4 (protein)
chain: METHKHGPSLAWWSLLLLLLGLLMPPAIAQDLTYREAVLRAVDAFNQQSSEANLYRLLSMDPQQLEDAKPYTPQPVSFTVKETECPRTTWKLPEQCDFKEDGLVKRCVGTVTRYQAWDSFDIRCNRAQESPEPTGLRKRLRKFRNKIKEKLKKIGQKIQGLLPKLAPRTDY
B2: BPI55: BPI holoprotein (protein, UniProt P17213 32-487, looked up)
Bactericidal …: VNPGVVVRISQKGLDYASQQGTAALQKELKRIKIPDYSDSFKIKHLGKGHYSFYSMDIREFQLPSSQISMVPNVGLKFSISNANIKISGKWKAQKRFLKMSGNFDLSIEGMSISADLKLGSNPTSGKPTITCSSCSSHINSVHVHISKSKVGWLIQLFHKKIESALRNKMNSQVCEKVTNSVSSELQPYFQTLPVMTKIDSVAGINYGLVAPPATTAETLDVQMKGEFYSENHHNPPPFAPPVMEFPAAHDRMVYLGLSDYFFNTAGLVYQEAGVLKMTLRDDMIPKESKFRLTTKFFGTFLPEVAKKFPNMKIQIHVSASTPPHLSVQPTGLTFYPAVDVQAFAVLPNSSLASLFLIGMHTTGSMEVSAESNRLVGELKLDRLLLELKHSNIGPFPVELLQDIMNYIVPILVLPRVNEKLQKGFPLPTPARVQLYNVVLQPHQNFLLFGADVVYK

What was measured:
[1] = test system: galactosamine-sensitized mice; type: in vivo; settings: CAP18 40 μg IP alone, no galactosamine, no Re-LPS; groups of 10 mice
Description: Galactosamine sensitizes mice to the lethal effects of LPS by a factor 1000 or more. CAP18 and LPS were mixed and injected IP into sensitized mice. CAP18 can neutralize the lethal effects of LPS in this model of endotoxemia (see Table 8).

human mononuclear cells = experiment: LPS-induced tissue factor by human mononuclear cells (clotting assay); type: cell-based
Description: Human mononuclear cells were separated from citrated peripheral blood by centrifugation over Sodium-metrizoate-Ficoll (lymphocyte Separation Medium, Japan Antibody Institute, Gumma). The resulting mixed mononuclear cell suspension was washed 3 times with RPMI 1640 media. Cell suspension (1×10^6 /ml) was stimulated with LPS for 16 to 18 hr.
Veronal buffered saline (VBS) was added to the cell pellet, lysed by 3 cycles of freeze/thaw and sonicated for 10 sec with a hand-held sonicator microbe (Handy Sonic, model UR-20P, Tomy Seiko LTD, Tokyo). Tissue factor activity was tested in modified unactivated partial thromboplastin time (7). One tenth ml of cell lysate (1×10^6 /ml) was preincubated with mouse plasma at 37° C. for 3 min. Then 0.1 ml of 25 mM-CaCl2 which contains phospholipid was added to the mixture and clotting time was measured using a fibrometer (Bio Quest Division, Becton Dickinson, Cokeysville, USA). A standard curve obtained from serial two-fold dilutions of rabbit brain thromboplastic (Simplastin, Ono Pharmaceutical Co.) was used to transpose tissue factor activity into arbitrary tissue factor units (1 μg/ml) suspension of rabbit brain was assigned a value of 1,000 units).
The mean tissue factor units+standard error was determined from three to four samples. Student's t test for unpair data was used to determine the statistically significant differences. A two-tailed P value of <0.05 was considered significant. […]

[2] = test system: wild-type smooth Proteus mirabilis; settings: wild-type smooth organism (Proteus mirabilis); cited from earlier work
Staphylococcus aureus = settings: Gram-positive Staphylococcus aureus; cited from earlier work
[3] = test system: rough mutant strain of Proteus mirabilis; settings: cited from earlier work
encapsulated E. coli = settings: cited from earlier work
[4] = LPS 0.1 μg/ml, peptide HA units: RNIP 2, CAP-18 1, HP-1 4, HP-2 2

| Molecule | Lethality (%) [1] [%] | Inhibition (%) (human mononuclear cells; [4]) | Tissue Factor Units, value in parentheses (ratio to unstimulated control) (human mononuclear cells; [4]) | Δ Units (%) (human mononuclear cells; LPS 0.1 μg/ml, relative to LPS alone (100)) | Tissue Factor Units, value in parentheses (ratio to unstimulated control) (human mononuclear cells; no LPS, peptide alone) | Tissue factor units (human mononuclear cells; no LPS, peptide alone) | Δ Units (human mononuclear cells; no LPS, peptide alone) [Units] | growth inhibition [2] | growth inhibition (Staphylococcus aureus) | growth inhibition [3] | growth inhibitory activity, reduction over control (encapsulated E. coli) |
| --- | --- | --- | --- | --- | --- | --- | --- | --- | --- | --- | --- |
| B1 | 0 | 30% and 35% | 9.9 | 70% and 65% | 1.2 | 583 ± 178 Units ×10^3 /3.6 × 10^4 cells | 235 |  |  |  |  |
| B2 |  |  |  |  |  |  |  | only the rBPI23 inhibited growth | Neither rBPI23 nor holoprotein BPI55 demonstrated inhibition | inhibited the growth | about 100 fold |
